# Patent US20250011363A1, “OPTIMIZED SHORTENED PEPTIDE THAT BINDS TO ACETYLCHOLINE RECEPTOR, AND USE THEREOF” (SKINMED CO., LTD., priority 2021, published 2025)
# Legend:
# acetylcholine receptor [1] = assay: SPR, receptor immobilised on chip, peptide at 10 µM
# acetylcholine receptor [2] = assay: SPR, AchR immobilized on chip
# acetylcholine receptor [3] = assay: SPR, AchR immobilized on CM5 chip, peptide 10 µM
Binder,Binding affinity (acetylcholine receptor [1]) [RU],Binding affinity (RU) (acetylcholine receptor [3]),other results
KWRQKR [6mer-2-233],,190,Binding affinity (RU) (acetylcholine receptor [2]): 190 RU
KRFCRK [6mer-2-257],,144,
KRIQRR [6mer-2-254],,148,
KSQQKR [6mer-2-256],,142,
RRYQKK [6mer-2-490],145,,
RQIQKR [6mer-2-485],148,,
KLRSRR [6mer-2-253],,145,
KRRRKK [6mer-2-250],,145,
KLYSRR [6mer-2-267],,141,
KSQTKR [6mer-2-251],,142,
RLRRRK [6mer-2-470],153,,
KGYQKK [6mer-2-247],,146,
KSYTKR [6mer-2-487],121,,
RWYTKK [6mer-2-261],,121,
KVYRRK [6mer-2-488],146,,
KVFRKK [6mer-2-252],,148,
KRFCRR [6mer-2-475],139,,
RVISKK [6mer-2-489],142,,
RRYLKK [6mer-2-483],121,,
KWRLKK [6mer-2-479],154,,
RSRLRR [6mer-2-472],148,,
RRFCKR [6mer-2-260],,142,
RGRLRK [6mer-2-473],131,,
RWYTKR [6mer-2-484],148,,

Binder,Binding affinity (acetylcholine receptor [1]) [RU],Binding affinity (RU) (acetylcholine receptor [3]),other results
RQICKK [6mer-2-268],,139,
RLRTKK [6mer-2-469],153,,
RSRTRR [6mer-2-477],135,,
KGQTRR [6mer-2-482],154,,
RLRRKK [6mer-2-255],,139,
KWYTRK [6mer-2-478],145,,
RGLRKR [6mer-2-249],,136,
RRQTRK [6mer-2-265],,135,
KWISKK [6mer-2-246],,123,
RSFSKR [6mer-2-468],133,,
RVQSKR [6mer-2-259],,128,
RWQQRR [6mer-2-474],128,,
KQQSKK [6mer-2-486],121,,
KGIRKK [6mer-2-476],148,,
RRFTKK [6mer-2-480],147,,
RQRYKK [6mer-2-481],131,,
KSQLKR [6mer-2-264],,127,
KWISRR [6mer-2-471],136,,
KRIYRR [6mer-2-258],,125,
RSYTRR [6mer-2-248],,154,
RRICKR [6mer-2-263],,145,
KWILKR [6mer-2-262],,142,
RWQTKK [6mer-2-266],,131,

# The next lines start with results.
Binding affinity (acetylcholine receptor [1]) [RU],Binding affinity (RU) (acetylcholine receptor [3]),Binder,other results
148,,KSYTRR [6mer-2-497],
121,,RRLTRK [6mer-2-513],
127,,KGLCRR [6mer-2-498],
121,,KLLCKK [6mer-2-495],
124,,KGLQKK [6mer-2-514],
135,,KSLLKK [6mer-2-506],
136,,RGFYRK [6mer-2-509],
123,,KGVRRK [6mer-2-493],
148,,KRQCKK [6mer-2-505],
146,,KRICRR [6mer-2-500],
135,,KRICKR [6mer-2-491],
154,,RGLTRK [6mer-2-504],
145,,RGICKR [6mer-2-507],
144,,KGLLRR [6mer-2-494],
146,,RQQQKK [6mer-2-516],
144,,KSFCKR [6mer-2-502],

Binding affinity (acetylcholine receptor [1]) [RU],Binding affinity (RU) (acetylcholine receptor [3]),Binder,other results
126,,RVFCRR [6mer-2-511],
121,,RVFLKK [6mer-2-508],
148,,RWFTRR [6mer-2-512],
123,,RWYCRK [6mer-2-515],
148,,RLIQKK [6mer-2-492],
154,,KVQTKK [6mer-2-503],
144,,KSYSKK [6mer-2-501],
144,,KQYTRK [6mer-2-521],
153,,KLRTKK [6mer-2-517],
135,,KQIQRR [6mer-2-519],
144,,KSYCKR [6mer-2-520],
146,,KRVLKK [6mer-2-510],
151,,KLVTKK [6mer-2-518],
144,,RVRYRK [6mer-2-496],
145,,RLFTKR [6mer-2-499],
